Laboratory results: patent publication US20230399393A1, “METHODS TO EXTEND HEALTH-SPAN AND TREAT AGE-RELATED DISEASES” (National University of Singapore, priority 2020, published 2023)

How the values were obtained:
C57Bl/6J mice [1] = assay: Mouse Frailty Index in aged mice treated from 55 to 110 weeks of age; format: in vivo; conditions: mice aged 110 weeks; 40 mg/kg IP every 3 weeks from age 55 weeks; vs isotype control IgG
Procedure: C57Bl/6J mice aged 46 weeks were obtained from the Jackson Laboratory, and randomised on a 1:1 basis to receive either X203 or an isotype control IgG antibody.
(§1) From age 55 weeks (human equivalent of ˜45 years old (i.e. middle age)) to age 110 weeks (human equivalent of ˜75 years old), mice were administered with 40 mg/kg of either X203 or isotype-matched control IgG via intra-peritoneal injection every 3 weeks.
At age 110 weeks, frailty was assessed using the Mouse Frailty Index described in Rizzo et al. Curr Protoc Mouse Biol. (2018) 8(2):e45, which is hereby incorporated by reference in its entirety. In this protocol, mice are individually observed and evaluated for the absence or presence and severity of 27 different characteristics each scored as 0, 0.5, or 1 based on level of severity. A frailty index score is calculated as the cumulative score of all measures. As a separate measurement of frailty, core body temperature was recorded, as core body temperature is known to decrease with increasing frailty in mice (Reynolds et al., Mechanisms of Ageing and Development (1985) 30(2):143-52). Data were analysed by 2-way ANOVA.
End-point frailty scoring was performed 2 days prior to sacrifice using the accepted frailty scoring system (Sukoff Rizzo et al. 2018, Current Protocols in Mouse Biology 8 (2): e45.)

C57Bl/6J mice [2] = assay: In vivo administration of anti-IL11 (X203) to old mice, summary of multi-morbidity; parameters: species or system mouse; conditions: vs IgG
Description: Furthermore, the data disclose that: • Administration of MEK1/2 inhibitor U0126 to cells stimulated with IL11 prevents ERK-mediated inactivation of LKB1/AMPK that stops IL11-induced mTORC1/P70S6K activation. • Administration of anti-IL11 (X203) vs IgG control to mice aged 55-110 weeks old results in lesser ERK activation, restored LKB1/AMPK activity and reduced mTORC1 activity and senescence markers (p16/p21). This is seen across tissues. • Mice deleted for IL11RA1 at 110 weeks old mirror the effects seen with X203 administration and have a signaling profile more similar to young mice, across tissues. • Administration of X203 vs IgG to old mice improves multi-morbidity with better serum levels of fats, glucose, lesser tissue fibrosis, better kidney function, reduced tissue inflammation, reduced obesity and lesser frailty. • Administration of X203 vs IgG to old mice improves markers of inflammation (CCL2, CCL5, TNFa, IL1b, IL11 and IL6)—an altered intercellular communication Hallmark of ageing—across tissues, including liver, kidney and skeletal muscle.
Male and female C57Bl/6J mice aged 46 weeks were purchased from the Jackson Laboratory. Mice were randomised on a 1:1 basis to receive either 40 mg/kg of X203 or an isotype control IgG antibody (11E10), every 3 weeks (IP), starting from 55 weeks of age. Mice were sacrificed at 110 weeks of age for blood and tissues collection. […]

C57Bl/6J mice [3] = assay: Gastrocnemius and soleus muscle weights; format: in vivo, mouse; conditions: age 110 weeks; vs IgG control
Procedure: as §1
Mice also underwent body-composition assessment via echo MRI both at baseline (age 55 weeks) and at 108-109 weeks. This enabled calculation of the change in body fat mass and lean (muscle) mass in the X203 and IgG control treatment groups. Gastrocnemius and soleus muscles were also harvested from the mice at age 110 weeks and their weights were recorded. Data were analysed by 2-way ANOVA.

C57Bl/6J mice [4] = assay: Ageing pathways in tissues of old mice receiving X203, western blot and densitometry; format: in vivo, mouse; conditions: 110-week old mice
Procedure: The same results are observed in the gastrocnemii (FIGS. 45 and 46), solei (FIGS. 47 and 48) and abdominal fat (FIGS. 49 and 50) of old mice treated with X203.
Male and female C57Bl/6J mice aged 46 weeks were purchased from the Jackson Laboratory. Mice were randomised on a 1:1 basis to receive either 40 mg/kg of X203 or an isotype control IgG antibody (11E10), every 3 weeks (IP), starting from 55 weeks of age. Mice were sacrificed at 110 weeks of age for blood and tissues collection. 12 weeks old male and female C57Bl/6J mice that were used as control were purchased from Invivos (Singapore).
Western blots were carried out on total protein extracts from primary human cardiac fibroblasts (HCFs), hepatic stellate cells (HSCs), hepatocytes, livers, gastrocnemii, solei, and abdominal fats. Cell or tissue lysates were homogenized in RIPA Lysis and Extraction Buffer (89901, Thermo Scientific) containing protease and phosphatase inhibitors (Roche). Protein lysates were separated by SDS-PAGE, transferred to PVDF membranes, blocked for 1 h with 3% BSA, and incubated overnight with either phospho-ACC (11818, CST), ACC (3676, CST), phospho-AMPK (2535, CST), AMPK (5832, CST), phospho-ERK1/2 (4370, CST), ERK1/2 (4695, CST), GAPDH (2118, CST), phospho-LKB1 S428 (3482, CST), phospho-LKB1 (S325), LKB1 (3047, CST), (phospho-mTOR (2971, CST), mTOR (2972, CST), p16 (ab232402, Abcam), p21 (64016, CST), phospho-p70S6K (9205, CST), p70S6K (2708, CST), phospho-S6 ribosomal protein (4858, CST), or S6 ribosomal protein (2217, CST). All primary antibodies are diluted 1:1000 in 1% BSA. Protein bands were visualized using the ECL detection system (Pierce) with anti-rabbit HRP (1:2000 in 3% BSA, 7074, CST).

C57Bl/6J mice [5] = assay: Analysis of markers of cellular senescence in tissues; format: in vivo, mouse; conditions: at 110 weeks; p16INK4a, p21CIP1, p53, SA-ß-gal; vs IgG control antibody
Description: C57Bl/6J mice are randomised to receive either X203 or IgG control antibody at a dose of 40m/kg via IP injection every 3 weeks from age 55 weeks to age 110 weeks.
At 110 weeks, tissues are harvested from the mice cells of the relevant tissues and analysed for gene and/or protein expression of p16^INK4a, p21^CIP1 and p53, and for SA-ß-gal activity.

[6] = compared with the liver results

B1: X203: mouse anti-mouse IL-11 IgG antagonist antibody; VH SEQ ID NO:22, VL SEQ ID NO:23 (antibody, V domains shown)
VH: EVQLQQSGPELVKPGASVKIPCKASGYTFTDYNMDWVKQSHGKSLEWIGDINPHNGGPIYNQKFTGKATLTVDKSSSTAYMELRSLTSEDTAVYYCARGELGHWYFDVWGTGTTVTVSS
VL: DIVLTQSPASLAVSLGQRATISCRASKSVSTSGYSYIHWYQQKPGQPPKLLIYLASNLDSGVPARFSGSGSGTDFTLNIHPVEEEDAATYYCQHSRDLPPTFGGGTKLEIK
frailty index (C57Bl/6J mice [1]): significant reduction | multi-morbidity (serum levels of fats, glucose, tissue fibrosis, kidney function, tissue inflammation, obesity, frailty) (C57Bl/6J mice [2]): improves | weight of gastrocnemius muscle as a proportion of body weight (C57Bl/6J mice [3]): greater | weight of soleus muscle as a proportion of body weight (C57Bl/6J mice [3]): greater | ERK/LKB1/mTORC1 activity, AMPK activity, p16 and p21 expression in gastrocnemii (C57Bl/6J mice [4]; [6]): same results | ERK/LKB1/mTORC1 activity, AMPK activity, p16 and p21 expression in solei (C57Bl/6J mice [4]; [6]): same results | AMPK activity in livers (C57Bl/6J mice [4]; vs IgG control): more | ERK/LKB1/mTORC1 activity in livers (C57Bl/6J mice [4]; vs IgG control): less | expression of key senescence markers (p16 and p21) in livers (C57Bl/6J mice [4]; vs IgG control): less | levels of markers of cellular senescence (C57Bl/6J mice [5]): lower
